One series deals with AncSZ. Nature of the series: phosphorylation enrichment, bacterial display (enrichment ratio); higher = better substrate or ligand; peptides without Tyr show the background.
For another series, the target named is EPHB1 (UniProt P54762). The description is as above.
The target of another series is EPHB2 (UniProt P29323). The series is described as above.
The target of the next series is FGFR1 (UniProt P11362). The description is as above.
A further series concerns the target FGFR3 (UniProt P22607). The series is described as above.
The test system of the next series is Fer (mouse). The series is described as above.
For a further series, the target named is Fes (UniProt P07332). Described as above.
A further series has as its target Fyn (UniProt P06241). Described as above.
In a further series the target is Hck (UniProt P08631). Described as above.
A further series has as its target Jak2 (UniProt O60674). Described as above.
The target in the next series is MERTK (UniProt Q12866). Described as above.
A further series has as its system c-Abl (mouse). Described as above.
For another series, the system named is c-Src. The description is as above.
For another series, the target named is Grb2 SH2 (UniProt P62993). Nature of the series: SH2 binding enrichment of the phosphorylated peptide, bacterial display (enrichment ratio); higher = better substrate or ligand; peptides without Tyr show the background.
Another series concerns the target SHP2-C SH2. Described as above.
A further series deals with c-Src SH2. Described as above.
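Throughout, for SH2 binding enrichment of the phosphorylated peptide, bacterial display: peptide library displayed on the E. coli surface as eCPX fusions, selected cells deep-sequenced, score is each peptide's frequency after selection divided by its frequency in the input.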
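Throughout, for phosphorylation enrichment, bacterial display: 11-residue human phosphosite peptides and single-mutation variants displayed on the E. coli surface, counted by deep sequencing, each peptide's frequency after selection divided by its frequency in the unselected input library; frequency after pTyr selection over input frequency; kinase dosed for 20-30% of maximal phosphorylation in three min.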

Chain of Grb2 SH2 (P62993 whole entry, looked up): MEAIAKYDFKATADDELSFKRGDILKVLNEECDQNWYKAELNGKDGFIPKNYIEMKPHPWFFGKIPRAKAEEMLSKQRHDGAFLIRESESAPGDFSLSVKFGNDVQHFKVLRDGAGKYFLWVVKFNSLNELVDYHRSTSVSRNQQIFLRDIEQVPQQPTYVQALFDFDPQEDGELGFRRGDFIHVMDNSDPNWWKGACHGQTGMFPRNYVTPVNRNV
Chain of EPHB1 (P54762 whole entry, looked up): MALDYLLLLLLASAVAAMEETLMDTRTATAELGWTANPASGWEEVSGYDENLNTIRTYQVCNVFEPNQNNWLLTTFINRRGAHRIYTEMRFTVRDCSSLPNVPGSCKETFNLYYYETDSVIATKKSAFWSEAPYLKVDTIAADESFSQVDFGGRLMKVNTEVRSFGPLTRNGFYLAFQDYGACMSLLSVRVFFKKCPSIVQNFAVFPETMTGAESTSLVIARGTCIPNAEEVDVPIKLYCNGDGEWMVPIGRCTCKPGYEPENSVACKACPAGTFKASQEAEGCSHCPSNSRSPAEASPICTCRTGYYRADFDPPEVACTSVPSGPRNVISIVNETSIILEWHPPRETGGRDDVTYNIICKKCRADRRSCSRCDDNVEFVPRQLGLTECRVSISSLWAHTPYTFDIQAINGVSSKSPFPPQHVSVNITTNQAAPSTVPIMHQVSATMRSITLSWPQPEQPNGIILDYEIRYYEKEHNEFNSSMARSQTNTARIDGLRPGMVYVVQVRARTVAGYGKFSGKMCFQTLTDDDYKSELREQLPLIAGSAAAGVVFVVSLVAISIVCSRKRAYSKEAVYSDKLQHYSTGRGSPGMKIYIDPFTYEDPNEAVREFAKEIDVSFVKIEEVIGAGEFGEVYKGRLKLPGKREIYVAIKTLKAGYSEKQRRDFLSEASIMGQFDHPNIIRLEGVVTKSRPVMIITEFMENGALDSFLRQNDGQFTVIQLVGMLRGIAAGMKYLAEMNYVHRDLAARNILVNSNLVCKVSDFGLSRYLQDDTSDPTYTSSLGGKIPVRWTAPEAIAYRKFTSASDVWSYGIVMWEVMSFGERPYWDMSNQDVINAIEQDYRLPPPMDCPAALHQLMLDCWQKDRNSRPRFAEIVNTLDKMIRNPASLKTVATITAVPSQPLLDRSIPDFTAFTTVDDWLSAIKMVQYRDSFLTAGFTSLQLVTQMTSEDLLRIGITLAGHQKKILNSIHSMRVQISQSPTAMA
Chain of Jak2 (O60674 whole entry, looked up): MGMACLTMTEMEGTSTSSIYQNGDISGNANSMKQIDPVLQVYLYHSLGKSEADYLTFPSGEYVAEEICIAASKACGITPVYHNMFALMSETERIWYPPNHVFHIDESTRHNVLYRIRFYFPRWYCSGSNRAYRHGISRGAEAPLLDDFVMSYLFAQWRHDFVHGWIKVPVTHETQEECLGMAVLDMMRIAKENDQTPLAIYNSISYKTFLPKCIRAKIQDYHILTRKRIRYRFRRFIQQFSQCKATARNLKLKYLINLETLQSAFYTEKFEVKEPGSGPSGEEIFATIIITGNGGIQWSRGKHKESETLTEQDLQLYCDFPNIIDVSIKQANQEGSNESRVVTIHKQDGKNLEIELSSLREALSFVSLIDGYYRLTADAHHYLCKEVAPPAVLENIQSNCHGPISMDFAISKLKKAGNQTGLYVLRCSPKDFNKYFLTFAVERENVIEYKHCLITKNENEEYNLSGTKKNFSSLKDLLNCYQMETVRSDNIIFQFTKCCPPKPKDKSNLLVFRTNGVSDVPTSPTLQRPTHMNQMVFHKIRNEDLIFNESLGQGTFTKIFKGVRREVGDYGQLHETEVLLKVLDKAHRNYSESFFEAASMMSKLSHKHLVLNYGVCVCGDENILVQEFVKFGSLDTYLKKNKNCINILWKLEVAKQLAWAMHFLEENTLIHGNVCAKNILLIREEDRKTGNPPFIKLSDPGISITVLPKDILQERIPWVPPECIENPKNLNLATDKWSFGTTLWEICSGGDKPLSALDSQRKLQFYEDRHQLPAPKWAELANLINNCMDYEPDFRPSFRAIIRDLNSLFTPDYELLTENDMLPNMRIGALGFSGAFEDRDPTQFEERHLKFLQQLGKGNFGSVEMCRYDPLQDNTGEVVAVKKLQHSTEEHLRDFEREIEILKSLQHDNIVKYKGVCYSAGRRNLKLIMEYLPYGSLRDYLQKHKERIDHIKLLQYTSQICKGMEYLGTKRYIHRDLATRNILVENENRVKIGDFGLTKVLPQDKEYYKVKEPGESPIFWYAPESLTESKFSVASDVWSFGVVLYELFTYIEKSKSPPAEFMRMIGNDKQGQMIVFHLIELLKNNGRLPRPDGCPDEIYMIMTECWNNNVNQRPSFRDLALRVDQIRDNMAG
Chain of MERTK (Q12866 whole entry, looked up): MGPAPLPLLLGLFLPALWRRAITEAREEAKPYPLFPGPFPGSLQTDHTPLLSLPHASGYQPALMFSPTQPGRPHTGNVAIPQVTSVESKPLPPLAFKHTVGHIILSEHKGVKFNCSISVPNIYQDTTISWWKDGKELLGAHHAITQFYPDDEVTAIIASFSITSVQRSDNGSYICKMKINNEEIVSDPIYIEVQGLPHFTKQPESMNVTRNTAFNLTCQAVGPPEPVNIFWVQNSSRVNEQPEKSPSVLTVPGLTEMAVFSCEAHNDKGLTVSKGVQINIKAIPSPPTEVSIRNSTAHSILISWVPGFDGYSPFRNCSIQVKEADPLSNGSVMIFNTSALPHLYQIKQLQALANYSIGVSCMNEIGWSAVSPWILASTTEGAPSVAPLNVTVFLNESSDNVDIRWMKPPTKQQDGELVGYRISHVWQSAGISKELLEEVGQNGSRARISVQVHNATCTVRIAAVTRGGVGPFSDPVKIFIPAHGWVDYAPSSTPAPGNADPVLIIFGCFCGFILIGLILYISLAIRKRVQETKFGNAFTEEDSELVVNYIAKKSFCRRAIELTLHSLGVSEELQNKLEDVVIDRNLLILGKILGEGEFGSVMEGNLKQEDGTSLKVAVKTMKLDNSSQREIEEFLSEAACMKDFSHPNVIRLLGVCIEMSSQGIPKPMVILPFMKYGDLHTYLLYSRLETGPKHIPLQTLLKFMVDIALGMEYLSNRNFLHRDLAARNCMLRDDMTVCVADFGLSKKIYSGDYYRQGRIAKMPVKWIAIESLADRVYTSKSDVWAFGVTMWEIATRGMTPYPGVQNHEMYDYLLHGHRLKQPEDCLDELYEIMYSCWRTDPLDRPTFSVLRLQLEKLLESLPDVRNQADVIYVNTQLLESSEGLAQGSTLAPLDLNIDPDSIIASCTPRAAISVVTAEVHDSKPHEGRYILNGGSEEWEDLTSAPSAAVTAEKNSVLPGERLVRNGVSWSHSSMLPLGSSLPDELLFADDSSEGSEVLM
Chain of Fyn (P06241 whole entry, looked up): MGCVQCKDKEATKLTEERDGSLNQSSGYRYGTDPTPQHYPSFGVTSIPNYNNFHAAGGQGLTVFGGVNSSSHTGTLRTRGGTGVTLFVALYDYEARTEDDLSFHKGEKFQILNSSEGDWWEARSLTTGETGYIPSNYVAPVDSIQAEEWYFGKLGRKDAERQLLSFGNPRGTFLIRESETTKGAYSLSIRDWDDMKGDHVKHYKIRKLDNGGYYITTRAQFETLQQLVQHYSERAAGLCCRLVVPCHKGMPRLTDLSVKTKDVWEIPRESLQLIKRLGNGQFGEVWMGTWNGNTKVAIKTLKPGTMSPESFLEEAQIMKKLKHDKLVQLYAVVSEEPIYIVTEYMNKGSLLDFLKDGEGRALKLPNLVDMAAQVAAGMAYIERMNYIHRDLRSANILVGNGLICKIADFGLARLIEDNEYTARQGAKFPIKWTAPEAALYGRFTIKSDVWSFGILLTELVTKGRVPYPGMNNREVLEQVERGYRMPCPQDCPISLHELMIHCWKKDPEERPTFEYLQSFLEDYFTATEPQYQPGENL
Chain of FGFR1 (P11362 whole entry, looked up): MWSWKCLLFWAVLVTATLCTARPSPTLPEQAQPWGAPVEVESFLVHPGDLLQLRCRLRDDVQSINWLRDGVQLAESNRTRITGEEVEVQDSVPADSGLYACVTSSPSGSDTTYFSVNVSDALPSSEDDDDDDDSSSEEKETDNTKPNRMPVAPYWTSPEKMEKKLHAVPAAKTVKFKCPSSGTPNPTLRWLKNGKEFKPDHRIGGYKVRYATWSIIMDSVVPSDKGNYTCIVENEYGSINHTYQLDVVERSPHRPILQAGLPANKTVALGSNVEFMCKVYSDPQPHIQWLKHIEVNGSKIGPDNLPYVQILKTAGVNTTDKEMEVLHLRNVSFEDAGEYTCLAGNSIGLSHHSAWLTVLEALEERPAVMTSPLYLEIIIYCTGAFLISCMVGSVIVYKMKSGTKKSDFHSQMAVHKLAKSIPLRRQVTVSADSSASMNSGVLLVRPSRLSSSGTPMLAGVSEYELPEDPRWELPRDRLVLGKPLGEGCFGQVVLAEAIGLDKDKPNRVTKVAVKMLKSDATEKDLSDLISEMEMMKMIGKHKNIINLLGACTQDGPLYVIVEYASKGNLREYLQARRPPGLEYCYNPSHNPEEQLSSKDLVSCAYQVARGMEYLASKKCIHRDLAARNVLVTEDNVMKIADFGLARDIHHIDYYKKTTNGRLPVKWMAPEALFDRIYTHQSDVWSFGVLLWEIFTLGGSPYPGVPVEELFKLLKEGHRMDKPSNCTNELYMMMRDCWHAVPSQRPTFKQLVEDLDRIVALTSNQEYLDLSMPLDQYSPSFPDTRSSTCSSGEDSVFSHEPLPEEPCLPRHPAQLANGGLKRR

As to NPQKSYFILLF [WAS_Y83_R86L_YF], the phosphorylation enrichment in the series with AncSZ amounted to 0.836; in the series with EPHB1 it was 0.546; with EPHB2 it was 0.551; with FGFR1 it was 1.01; with FGFR3, 0.906; in the series on Fer (mouse), 0.414. For the same sequence, the phosphorylation enrichment worked out at 0.969 in the series with Fes; 0.449 with Fyn; 0.43 with Hck; 1.05 with Jak2; 0.398 in the series with MERTK; 0.606 in the series with c-Abl (mouse). Also, the phosphorylation enrichment with c-Src amounted to 0.337. Moreover, the SH2 binding enrichment in the series with Grb2 SH2 was determined as 1.27; with SHP2-C SH2 it was 0.944; in the series with c-Src SH2, 0.573.
As for RLGLQYSQGLV [EIF2B4_Y214], the phosphorylation enrichment in the series on AncSZ is 0.876; with EPHB1, 0.676; with EPHB2, 0.725; with FGFR1 it was 0.853; with FGFR3, 0.851; with Fer (mouse) it was 0.654. The phosphorylation enrichment was 1.31 with Fes; 0.732 with Fyn; 0.588 in the series with Hck; 1.19 with Jak2; 0.365 with MERTK; 1.16 in the series on c-Abl (mouse). Also, the phosphorylation enrichment with c-Src was 0.683. The values for the SH2 binding enrichment with Grb2 SH2, with SHP2-C SH2 and with c-Src SH2 were 0.955, 0.553 and 0.452, respectively.
As for VYPATYHPDHW [EFCAB12_Y544], the phosphorylation enrichment stood at 0.554 in the series with AncSZ; 0.423 with EPHB1; 0.385 with EPHB2; 0.564 with FGFR1; 0.828 in the series with FGFR3; 0.419 in the series on Fer (mouse). Also, the phosphorylation enrichment came out at 0.662 in the series with Fes; 0.465 in the series with Fyn; 0.689 with Hck; 0.639 with Jak2; 0.296 with MERTK; 0.526 in the series on c-Abl (mouse). The phosphorylation enrichment in the series with c-Src came out at 0.436. Moreover, the SH2 binding enrichment in the series with Grb2 SH2 is 1.03; with SHP2-C SH2 it was 0.635; with c-Src SH2, 0.53.
As to KHMADYPDFKF [SOX11_Y113_YF], the phosphorylation enrichment stood at 0.745 in the series with AncSZ; 0.503 in the series with EPHB1; 0.496 in the series with EPHB2; 0.62 with FGFR1; 0.701 in the series with FGFR3; 0.434 with Fer (mouse). Moreover, the phosphorylation enrichment with Fes turned out to be 0.84; with Fyn, 0.502; with Hck, 0.391; with Jak2, 0.669; with MERTK, 0.398; with c-Abl (mouse) it was 0.591. For the same sequence, the phosphorylation enrichment with c-Src was 0.386. Further, the figures for the SH2 binding enrichment in the series with Grb2 SH2, in the series with SHP2-C SH2 and with c-Src SH2 were 0.733, 0.719 and 0.387, respectively.
KVASVYEAPGF [NT5C_Y65]: the phosphorylation enrichment amounted to 0.973 with AncSZ; 3.77 in the series with EPHB1; 5.62 with EPHB2; 0.481 in the series with FGFR1; 0.583 with FGFR3; 6.87 in the series with Fer (mouse). The phosphorylation enrichment is 0.903 with Fes; 7.05 with Fyn; 9.28 in the series with Hck; 0.609 with Jak2; 2.59 with MERTK; 9.41 in the series with c-Abl (mouse). Besides, the phosphorylation enrichment in the series with c-Src came to 5.05. Further, the results for the SH2 binding enrichment with Grb2 SH2, with SHP2-C SH2 and in the series with c-Src SH2 were 0.948, 0.906 and 0.645, respectively.
As to FDKPVYQKTTE [LDLR_Y828_N825K], the phosphorylation enrichment is 0.684 with AncSZ; 0.452 with EPHB1; 0.475 with EPHB2; 0.518 in the series with FGFR1; 0.57 with FGFR3; 0.451 in the series with Fer (mouse). Further, the phosphorylation enrichment was determined as 0.739 in the series with Fes; 0.472 with Fyn; 0.436 with Hck; 0.691 with Jak2; 0.473 with MERTK; 0.606 with c-Abl (mouse). In the series on c-Src, the phosphorylation enrichment came to 0.506. In addition, the SH2 binding enrichment is 0.811 with Grb2 SH2, 0.557 with SHP2-C SH2 and 0.563 in the series with c-Src SH2.
As to GVRLYYRVMES [RB1_Y454], the phosphorylation enrichment with AncSZ turned out to be 1.03; in the series with EPHB1, 0.587; with EPHB2, 0.574; in the series with FGFR1, 0.535; with FGFR3, 0.711; with Fer (mouse) it was 0.538. Moreover, the phosphorylation enrichment with Fes is 1.26; in the series with Fyn, 0.438; with Hck it was 0.437; with Jak2, 1.02; in the series with MERTK, 0.419; in the series with c-Abl (mouse), 0.731. Moreover, in the series on c-Src, the phosphorylation enrichment worked out at 0.333. Further, the SH2 binding enrichment with Grb2 SH2 came to 0.871; in the series with SHP2-C SH2 it was 0.829; with c-Src SH2, 0.973.
As to TMKSHYMELYD [BBS2_Y644_R643H], the phosphorylation enrichment was determined as 0.807 with AncSZ; 0.971 with EPHB1; 0.683 in the series with EPHB2; 0.568 with FGFR1; 0.64 with FGFR3; 0.453 in the series on Fer (mouse). For the same sequence, the phosphorylation enrichment with Fes came out at 1.01; with Fyn, 0.69; with Hck, 0.953; in the series with Jak2, 0.864; with MERTK, 1.34; with c-Abl (mouse), 0.693. Besides, the phosphorylation enrichment in the series on c-Src was 1.2. Further, the SH2 binding enrichment is 1.22 with Grb2 SH2, 1.84 in the series with SHP2-C SH2 and 10.3 with c-Src SH2.
